To fix the notation:
T1: Nectin-like-4 (UniProt Q8NFZ8 21-324, limits assumed)
T1 construct: Bought recombinant protein; also called CADM4; IgSF4C
T1 sequence (looked up): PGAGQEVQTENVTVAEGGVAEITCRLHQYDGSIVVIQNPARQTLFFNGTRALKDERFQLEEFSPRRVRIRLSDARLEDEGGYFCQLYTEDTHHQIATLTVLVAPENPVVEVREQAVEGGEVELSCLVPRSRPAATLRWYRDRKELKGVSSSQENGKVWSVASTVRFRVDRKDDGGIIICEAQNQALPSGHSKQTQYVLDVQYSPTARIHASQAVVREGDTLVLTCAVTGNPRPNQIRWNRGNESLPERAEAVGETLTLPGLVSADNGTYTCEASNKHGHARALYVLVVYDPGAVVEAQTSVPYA

T2: Nectin-like-3 (UniProt Q8N3J6 25-367, limits assumed)
T2 construct: Bought recombinant protein; also called CADM2; IgSF4D
T2 sequence (looked up): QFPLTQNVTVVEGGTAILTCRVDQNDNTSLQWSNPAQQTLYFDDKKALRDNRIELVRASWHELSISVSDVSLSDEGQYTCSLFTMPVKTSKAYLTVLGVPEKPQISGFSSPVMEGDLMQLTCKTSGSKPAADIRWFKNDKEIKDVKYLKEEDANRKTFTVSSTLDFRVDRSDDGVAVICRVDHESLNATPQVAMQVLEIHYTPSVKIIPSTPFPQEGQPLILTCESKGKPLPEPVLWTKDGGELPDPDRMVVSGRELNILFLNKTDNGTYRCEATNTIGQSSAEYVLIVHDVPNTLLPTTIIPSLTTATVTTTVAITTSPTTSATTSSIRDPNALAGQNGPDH

T3: Nectin-like-2 (UniProt Q9BY67 45-374, limits assumed)
T3 construct: Bought recombinant protein; also called CADM1; IgSF4
T3 sequence (looked up): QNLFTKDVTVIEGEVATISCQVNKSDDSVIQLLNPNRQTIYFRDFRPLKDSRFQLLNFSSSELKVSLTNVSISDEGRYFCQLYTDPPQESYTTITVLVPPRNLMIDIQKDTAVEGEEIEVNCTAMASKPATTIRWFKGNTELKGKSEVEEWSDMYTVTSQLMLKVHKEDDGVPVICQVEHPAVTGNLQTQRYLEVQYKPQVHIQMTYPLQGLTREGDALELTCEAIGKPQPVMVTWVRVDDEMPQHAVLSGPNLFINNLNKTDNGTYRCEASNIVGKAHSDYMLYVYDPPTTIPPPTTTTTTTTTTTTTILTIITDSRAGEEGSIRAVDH

T4: Nectin-2 (UniProt Q92692 32-360, limits assumed)
T4 construct: Bought recombinant protein; also called CD112; PVRL-2
T4 sequence (looked up): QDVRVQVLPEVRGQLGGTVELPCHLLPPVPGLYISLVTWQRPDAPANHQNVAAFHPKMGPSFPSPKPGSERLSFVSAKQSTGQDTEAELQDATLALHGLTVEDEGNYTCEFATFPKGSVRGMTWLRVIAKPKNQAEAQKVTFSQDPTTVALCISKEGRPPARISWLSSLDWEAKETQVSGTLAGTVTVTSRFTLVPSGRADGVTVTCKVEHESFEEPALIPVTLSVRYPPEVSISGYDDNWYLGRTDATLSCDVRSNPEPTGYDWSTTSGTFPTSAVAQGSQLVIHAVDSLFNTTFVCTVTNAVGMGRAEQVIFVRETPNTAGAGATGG

T5: recombinant human Nectin-4 protein (human, UniProt Q96NY8 32-349)
T5 construct: Prepared in-house (Jiangsu Mabwell) by transient transfection of CHO cells; also called PVRL-4; PRR-4
T5 sequence: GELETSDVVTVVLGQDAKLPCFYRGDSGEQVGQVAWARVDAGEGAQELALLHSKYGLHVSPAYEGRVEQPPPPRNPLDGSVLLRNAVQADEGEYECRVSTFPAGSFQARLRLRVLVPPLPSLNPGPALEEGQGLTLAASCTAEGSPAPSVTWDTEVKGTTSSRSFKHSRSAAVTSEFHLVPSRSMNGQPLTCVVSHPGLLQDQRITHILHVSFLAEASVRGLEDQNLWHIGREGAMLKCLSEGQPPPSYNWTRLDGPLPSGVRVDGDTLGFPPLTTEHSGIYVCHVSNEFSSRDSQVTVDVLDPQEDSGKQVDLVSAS

T6: Nectin-like-5 (UniProt P15151 21-343)
T6 construct: Bought recombinant protein; also called CD155; PVR
T6 sequence (looked up): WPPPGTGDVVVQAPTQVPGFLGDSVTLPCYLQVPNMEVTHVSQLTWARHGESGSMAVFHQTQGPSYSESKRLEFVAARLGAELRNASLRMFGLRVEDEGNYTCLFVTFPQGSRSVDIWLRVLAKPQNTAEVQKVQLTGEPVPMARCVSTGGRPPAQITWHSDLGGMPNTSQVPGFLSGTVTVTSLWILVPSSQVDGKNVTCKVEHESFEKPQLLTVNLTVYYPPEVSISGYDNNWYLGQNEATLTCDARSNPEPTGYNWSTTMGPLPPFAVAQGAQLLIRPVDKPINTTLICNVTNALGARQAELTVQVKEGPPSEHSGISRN

B1: Antibody MM11 (antibody, mouse IgG1, kappa, V domains shown)
VH: DVQLQESGPGLVKPSQSLSLTCSVTGYSITSNFYWNWIRQFPGNRLEWMGYISYDGSNNYNPSLKNRISISRDTSKNQFFLKLNSVTTEDTATYYCVRADYWGQGTLVTVSA
VL: DTVMTQTPLSLPVSLGDQASISCRSSQSLESSDGHAYLNWYLQKPGQSPQLLIYRVSNRFSGVLHRFSGSGSGTDFTLKISRVEAEDLGVYFCLQFTHVPFTFGSGTKLEIKR
notes: Mouse monoclonal antibody from hybridoma; also called Nectin-4 mouse monoclonal antibody MM11; mouse antibody MM11
B2: Antibody R012 (antibody, V domains shown)
VH: SKSVEESGGRLVTPGTPLTLTCTVSGFSLSTYAMSWVRQAPGKGLEYIGIISGRGTTYYASWLKGRFTISKTSTTVDLKITSPTTEDTATYFCARDAGISDVYTGYFNLWGQGTLVTVSS
VL: QPVLAQLPSASAALGASAKLTCTLSSAHRTYTIAWYQQQQGEAPRYLMMLKSDGSYTKGTGVPDRFSGSSSGADRYLIISSVQAADEADYYCGADDSGGYVFGGGTQLTVTG
notes: Rabbit monoclonal antibody from phage display; also called Nectin-4 rabbit monoclonal antibody R012; rabbit antibody R012
B3: Antibody R036 (antibody, V domains shown)
VH: SQSVEESGGRLVTPGTPLTLTCTVSGFSLSSYAMSWVRQAPGKGLEYIGIIGGRGTTYYAIWAKGRFTISKTSTTVDLKITSPTTEDTATYFCARDAGTTYVGTTYVATGYFNLWGQGTLVTVSS
VL: B2 VL with A5T, L7P, R29K, M49I, K58R, A85D
notes: Rabbit monoclonal antibody from phage display; also called Nectin-4 rabbit monoclonal antibody R036; rabbit antibody R036

Changes are numbered by the printed parent chain.

In the first assay the target is T1, Nectin-like-4. Description: ELISA, coated antigen. On the technique in general: In an ELISA, binding on a coated surface is turned into a signal by an enzyme label.
Turning to B1, the binding result was “no binding (tested: 10000 ng/ml)”.

As to B2, the binding result is on record as “no binding (tested: 10000 ng/ml)”.

Consider B3, for which the binding result is recorded as “no binding (tested: 10000 ng/ml)”.

In another assay the target is T2, Nectin-like-3. Description: ELISA, coated antigen, antibody at 10000 ng/ml. How it is done:
(§1) Coating: Nectin-1, Nectin-2, Nectin-3, Nectin-4, Nectin-like-1, Nectin-like-2, Nectin-like-3, Nectin-like-4, and Nectin-like-5 were diluted to 5 μg/ml in coating buffer (carbonate buffer, pH 9.6) respectively. A 96-well plate was coat with 100 μl per well and incubated overnight at 2-8° C.;
(§2) Sample loading: The plate was taken out, patted dry, and washed twice with 200 μl/well of PBST, then patted dry. The Nectin-4 antibodies prepared in Example 1 (antibody MM11, antibody R012, and antibody R036) were diluted with 1% BSA/PBST to concentrations of 10 μg/ml, 1 μg/ml, 100 ng/ml, and 10 ng/ml, respectively. 1% BSA/PBST solution for dilution was set as a blank control. 100 μl per well was added to the 96-well plate, and incubated at room temperature for 2 hours;
(§3) Reaction termination and plate reading: 100 μl/well of 1 mol/L H3PO4 was added to terminate the reaction and the plated was read. The absorbances of wells in the plate at 450 nm with 650 nm as reference wavelength were read and recorded as OD_{450 nm-650 nm}.
As for B1, the OD detection value worked out at 0.032 OD450 nm-650 nm.

Molecule B2 yielded an OD detection value of 0.009 OD450 nm-650 nm.

On to B3, for which the OD detection value amounted to 0.008 OD450 nm-650 nm.

The target in a further assay is T3, Nectin-like-2. Description: ELISA, coated antigen, antibody at 10000 ng/ml. How it is done: as §1, §2, §3
Regarding B1, the OD detection value was 0.005 OD450 nm-650 nm.

Molecule B2 gave an OD detection value of 0.009 OD450 nm-650 nm.

As to B3, the OD detection value came out at 0.008 OD450 nm-650 nm.

A further assay concerns the target T4, Nectin-2. Description: ELISA, coated antigen, antibody at 10000 ng/ml. As for the experimental part: as §1, §2, §3
Regarding B1, the OD detection value was 0.017 OD450 nm-650 nm.

In the case of B2, the OD detection value turned out to be 0.008 OD450 nm-650 nm.

In turn, B3 registered an OD detection value of 0.007 OD450 nm-650 nm.

Another assay addresses T5, recombinant human Nectin-4 protein. Description: ELISA, coated antigen, antibody at 10000 ng/ml. As for the experimental part:
as §1, §2, §3
On to B1, for which the OD detection value came out at 1.97 OD450 nm-650 nm.

With B2, the OD detection value was 1.51 OD450 nm-650 nm.

For B3, the OD detection value stood at 1.63 OD450 nm-650 nm.

In another assay the target is T6, Nectin-like-5. Description: ELISA, coated antigen, antibody at 10000 ng/ml. How it is done: as §1, §2, §3
B1 gave an OD detection value of 0.008 OD450 nm-650 nm.

As to B2, the OD detection value is 0.008 OD450 nm-650 nm.

On to B3, for which the OD detection value was determined as 0.009 OD450 nm-650 nm.

Values taken from patent publication US20260265354A1 (JIANGSU MABWELL HEALTH PHARMACEUTICAL R AND D, published 2026).
